Measurements from patent US20120090043A1, “TARGETS FOR RETROVIRUS ASSOCIATED DISEASES” (priority 2009, published 2012).

B1: PIAS2: human host interactor protein, Gene ID 9063, expressed from transfected ORF vector (protein)
chain: MADFEELRNMVSSFRVSELQVLLGFAGRNKSGRKHDLLMRALHLLKSGCSPAVQIKIRELYRRRYPRTLEGLSDLSTIKSSVFSLDGGSSPVEPDLAVAGIHSLPSTSVTPHSPSSPVGSVLLQDTKPTFEMQQPSPPIPPVHPDVQLKNLPFYDVLDVLIKPTSLVQSSIQRFQEKFFIFALTPQQVREICISRDFLPGGRRDYTVQVQLRLCLAETSCPQEDNYPNSLCIKVNGKLFPLPGYAPPPKNGIEQKRPGRPLNITSLVRLSSAVPNQISISWASEIGKNYSMSVYLVRQLTSAMLLQRLKMKGIRNPDHSRALIKEKLTADPDSEIATTSLRVSLMCPLGKMRLTIPCRAVTCTHLQCFDAALYLQMNEKKPTWICPVCDKKAAYESLILDGLFMEILNDCSDVDEIKFQEDGSWCPMRPKKEAMKVSSQPCTKIESSSVLSKPCSVTVASEASKKKVDVIDLTIESSSDEEEDPPAKRKCIFMSETQSSPTKGVLMYQPSSVRVPSVTSVDPAAIPPSLTDYSVPFHHTPISSMSSDLPGLDFLSLIPVDPQYCPPMFLDSLTSPLTASSTSVTTTSSHESSTHVSSSSSRSETGVITSSGSNIPDIISLD
B2: NKAP: human host interactor protein, Gene ID 79576, expressed from transfected ORF vector (protein)
chain: MAPVSGSRSPDREASGSGGRRRSSSKSPKPSKSARSPRGRRSRSHSCSRSGDRNGLTHQLGGLSQGSRNQSYRSRSRSRSRERPSAPRGIPFASASSSVYYGSYSRPYGSDKPWPSLLDKEREESLRQKRLSERERIGELGAPEVWGLSPKNPEPDSDEHTPVEDEEPKKSTTSASTSEEEKKKKSSRSKERSKKRRKKKSSKRKHKKYSEDSDSDSDSETDSSDEDNKRRAKKAKKKEKKKKHRSKKYKKKRSKKSRKESSDSSSKESQEEFLENPWKDRTKAEEPSDLIGPEAPKTLTSQDDKPLNYGHALLPGEGAAMAEYVKAGKRIPRRGEIGLTSEEIASFECSGYVMSGSRHRRMEAVRLRKENQIYSADEKRALASFNQEERRKRENKILASFREMVYRKTKGKDDK
B3: PDE9A: human host interactor protein, Gene ID 5152, expressed from transfected ORF vector (protein)
chain: MGSGSSSYRPKAIYLDIDGRIQKVIFSKYCNSSDIMDLFCIATGLPRNTTISLLTTDDAMVSIDPTMPANSERTPYKVRPVAIKQLSAGVEDKRTTSRGQSAERPLRDRRVVGLEQPRREGAFESGQVEPRPREPQGCYQEGQRIPPEREELIQSVLAQVAEQFSRAFKINELKAEVANHLAVLEKRVELEGLKVVEIEKCKSDIKKMREELAARSSRTNCPCKYSFLDNHKKLTPRRDVPTYPKYLLSPETIEALRKPTFDVWLWEPNEMLSCLEHMYHDLGLVRDFSINPVTLRRWLFCVHDNYRNNPFHNFRHCFCVAQMMYSMVWLCSLQEKFSQTDILILMTAAICHDLDHPGYNNTYQINARTELAVRYNDISPLENHHCAVAFQILAEPECNIFSNIPPDGFKQIRQGMITLILATDMARHAEIMDSFKEKMENFDYSNEEHMTLLKMILIKCCDISNEVRPMEVAEPWVDCLLEEYFMQSDREKSEGLPVAPFMDRDKVTKATAQIGFIKFVLIPMFETVTKLFPMVEEIMLQPLWESRDRYEELKRIDDAMKELQKKTDSLTSGATEKSRERSRDVKNSEGDCA

Tested on: HIV-1 LTR promoter transactivation by HIV-1 Tat
Assay: Transactivation assay, HIV-1 LTR luciferase reporter with HIV-1 Tat
Format: cell-based
Details: HEK293 cells co-transfected with pHIV1LTR-Luc, HIV-1 Tat and the human ORF; relative luciferase activity 24 h post-transfection; positive if >=2 or <=0.5 and p<0.05
From the text: The plasmids pHIV1LTR-Luc or pHTLV1LTR-Luc containing a luciferase reporter gene under the control of the HIV-1 or HTLV-1 LTR promoters and plasmids expressing either HIV-1 Tat or HTLV-1 Tax and each human ORF found to interact with viral proteins were transfected into 10^4 HEK293 cells using the calcium phosphate method. Twenty-four hours post-transfection, cells were washed three times with PBS, lysed and luciferase activities determined from two independent transfection experiments in triplicate. We computed a paired t-test to assess the difference of the means between samples with and without the human interactor. For a trial to be considered positive, the relative luciferase activities has to be >=2 or <=0.5, and the p-value of the t-test<0.05.
Many HIV/HTLV-human interactions in our data set (130/212) involved the retroviral transactivator proteins HTLV-1 Tax (57/212), HTLV-2 Tax2 (49/212), HIV-1 Tat (10/212) and HIV-2 Tat (14/212). Human proteins interacting with viral transactivators likely influence Tat or Tax transactivation. Expression vectors encoding human ORFs and HIV-1 Tat or HTLV-1 Tax proteins were tested in a transactivation reporter assay against reporter plasmids harboring HIV-1 or HTLV-1 viral promoter sequences cloned upstream of the luciferase reporter gene. In the controls Tat or Tax respectively activated HIV or HTLV LTR-directed gene expression. Co-transfection of interacting human ORFs identified 71 proteins (54% of the 131 human targets in our data set) that regulated HIV (26.7% of targets), HTLV (37.4% of targets) or both (9.9% of targets) LTR promoter activation by Tat or Tax (see Tables 7 and 8; Table 13 below containing quantitative data on the regulation of transactivation). Wherever not expressly specified, constructs used herein were generally made by sub-cloning entry clones from the ORFeome V3.1 into suitable destination vectors.

For B1, which HIV_LTR transactiv. is on record?
Its HIV_LTR transactiv. is 0.42 fold change.

B2 was tested. Which HIV_LTR transactiv. did it give?
The HIV_LTR transactiv. was 2.68 fold change.

How did the HIV_LTR transactiv. turn out when B3 was run?
Its HIV_LTR transactiv. is 0.28 fold change.
